# Test results from patent publication US20190106487A1 (Sanofi, published 2019).
# Positions count from the first letter of the chain named.
# T1: rhIL-1RAcP/Fc Chimera (human, UniProt Q9NPH3 21-359)
# T1 construct: also called P013_03; P013-03
# T1 sequence (looked up): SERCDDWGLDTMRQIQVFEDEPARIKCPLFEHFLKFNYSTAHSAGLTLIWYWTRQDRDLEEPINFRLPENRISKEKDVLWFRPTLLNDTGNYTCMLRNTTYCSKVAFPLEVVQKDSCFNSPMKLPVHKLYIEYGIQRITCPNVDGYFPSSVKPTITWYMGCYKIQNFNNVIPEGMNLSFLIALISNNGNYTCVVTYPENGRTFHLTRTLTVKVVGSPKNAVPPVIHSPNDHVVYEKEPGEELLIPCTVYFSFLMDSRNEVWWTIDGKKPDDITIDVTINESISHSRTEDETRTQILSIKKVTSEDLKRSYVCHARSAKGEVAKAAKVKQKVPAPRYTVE
# T2: mIL1RAcP-Fc (murine, UniProt Q61730 21-359)
# T2 construct: also called P013_04; P013-04
# T2 sequence (looked up): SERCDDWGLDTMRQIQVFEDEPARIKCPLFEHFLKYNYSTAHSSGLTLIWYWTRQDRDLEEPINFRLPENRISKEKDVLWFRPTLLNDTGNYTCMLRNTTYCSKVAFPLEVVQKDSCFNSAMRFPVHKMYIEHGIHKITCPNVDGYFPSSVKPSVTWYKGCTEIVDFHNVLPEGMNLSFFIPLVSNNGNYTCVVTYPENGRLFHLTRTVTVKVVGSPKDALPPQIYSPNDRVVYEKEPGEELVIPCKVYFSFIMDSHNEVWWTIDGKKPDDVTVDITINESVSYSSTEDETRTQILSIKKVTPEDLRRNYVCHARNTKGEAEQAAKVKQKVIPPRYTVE
# T3: human IL-1RAcP on 293T/17-FR cells (human, UniProt Q9NPH3 21-570)
# T3 sequence (looked up): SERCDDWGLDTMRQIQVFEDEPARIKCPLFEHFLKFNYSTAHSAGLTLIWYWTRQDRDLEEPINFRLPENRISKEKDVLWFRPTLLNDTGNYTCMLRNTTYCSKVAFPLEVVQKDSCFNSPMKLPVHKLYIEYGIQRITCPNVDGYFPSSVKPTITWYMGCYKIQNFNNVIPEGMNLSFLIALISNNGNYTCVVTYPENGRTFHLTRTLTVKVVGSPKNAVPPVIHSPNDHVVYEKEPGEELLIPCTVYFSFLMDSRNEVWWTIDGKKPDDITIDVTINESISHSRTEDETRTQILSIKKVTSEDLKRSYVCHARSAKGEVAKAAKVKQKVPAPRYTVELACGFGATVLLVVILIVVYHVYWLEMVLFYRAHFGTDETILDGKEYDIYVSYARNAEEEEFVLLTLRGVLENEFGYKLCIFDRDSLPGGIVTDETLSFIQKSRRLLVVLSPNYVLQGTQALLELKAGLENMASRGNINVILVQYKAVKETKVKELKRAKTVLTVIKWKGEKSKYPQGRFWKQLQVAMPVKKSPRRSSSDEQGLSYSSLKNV
# B1: P013.S.01.B.C06 (antibody, V domains shown)
# VH: QSVEESGGRLVTPGGSLTLTCTVSGFSLSIYAMGWFRQAPGKGLEWIGDIYAGSGSTWYASWAKGRFTISKTSTTVDLKITSPTTEDTATYFCAREIDAGYVGYGFNLWGQGTLVTVSS
# VL: AQALTQTPSSVSAAVGGTVTINCQSSQSVYSDYLAWYQQKPGQPPKLLIYQASKLATGVPSRFKGSGSGTQFTLTISGVQSDDAATYYCQATYYGSGWYRAFGGGTELVVK
# notes: rabbit monoclonal antibody; also called P013.A.00014.D06
# B2: P013.S.02.B.C01 (antibody, V domains shown)
# VH: B1 VH with I30V, A52T
# VL: B1 VL with A35V, T57S, Y94S, G95S, S96T, L108V
# notes: rabbit monoclonal antibody; also called P013.A.00109.C12
# B3: P013.S.02.B.C03 (antibody, V domains shown)
# VH: QSLEESGGRLVTPGTPLTLTCTVSGIDLSSYAMGWVRQAPGKGLEYIGIISNSGTTYYASWAKGRFTISKTSSTTVDLKMTSPTTEDTATYFCARDRYANTHGIFSLWGQGTLVTVSS
# VL: DIVMTQTPASVSAPVGGTVTINCQASESIYSDLAWYQQKPGQPPKLLISFVATLESGVPSRFKGSGSGTEFTLTISDLESADAATYYCQCTYGGSGSGNGAAFGGGTEVVVK
# notes: rabbit monoclonal antibody; also called P013.A.00085.G07
# B4: P013.S.02.B.D01 (antibody, V domains shown)
# VH: LEQSGGGAEGGLVKPGGSLELCCKASGFSLSSNYWMCWVRQAPGKGLEWIGCIYAGSSDSTYYASWVNGRFTLSRDIDQSTGCLQLNSLTAADTAMYYCASPGYGGYGYYGLWGQGTLVTVSS
# VL: ALVMTQTPSPVSAAVGGTVTINCQASEDIYSNLAWFQQKPGQPPKLLIYDASTLASGVPSRFSGSGSGTEFTLTISGLQSDDAATYYCLGVYTYISPDGTDNAFGGGTEVVVK
# notes: rabbit monoclonal antibody; also called P013.A.00141.G02
# B5: P013.S.02.B.D02 (antibody, V domains shown)
# VH: QSLEESGGDLVKPGASLKLSCTASGVSFSSAYWMCWVRQAPGKGLEWIACIYAGSSGSTYYASWAKGRFTISKTSSTTVTLQMTSLTAADTATYFCARHAAWFELDLWGPGTLVTVSS
# VL: ALVMTQTPSPVSAAVGGTVTINCQASQNIASAYLSWYQQKPGQPPKLLIYAASTLTDGVPSRFKGSGSVTEFTLTISGVQSDDAATYYCAGYKSYTDDEFAFGGGTEVVVK
# notes: rabbit monoclonal antibody; also called P013.A.00086.F05
# B6: P013.S.02.B.E01 (antibody, V domains shown)
# VH: QSLEESGGRLVTPGTPLTLTCTVSGFSLSIYGMGWVRQAPGEGLEWIGSISSGGSTYYATWAKGRFTISKTSSTTLDLKITSPTTEDTATYFCVRSDGYTNGDYDTYFNLWGQGTLVTVS
# VL: DIVMTQTPASVSEPVGGTVTIRCQASQSISSWLSWYQQKPGQPPKLLIYQASALASGVSSRFIGSGYGTEFTLTISGVQSEDAATYYCQCTYGIGSNSDYGVAFGGGTEVVVK
# notes: rabbit monoclonal antibody; also called P013.A.00013.G07
# B7: P013.S.02.B.E02 (antibody, V domains shown)
# VH: QSVEESGGRLVTPGTPLTLTCTVSGFSLNVYNMGWVRQAPGKGLEYIGIISSSGTTYYASWAKGRFTISKTSSTTVDLKITSLTTEDTATYFCARADGYTEGDYATYFNLWGQGTLVTVSS
# VL: B6 VL with R22K, S30T, S31T, S34A, N97G, D99S
# notes: rabbit monoclonal antibody; also called P013.A.00087.E09
# B8: P013.S.01.B.B04 (antibody, V domains shown)
# VH: QSVEESGGRLVTPGTPLTLTCTVSGIDLDNYAMGWVRQAPGKGLEYIGVISSDGFFYDASWAKGRFTISKASSTTVDLKMTGLTPEDTATYFCARDRGTSTGSLDLWGQGTLVTVSS
# VL: ALVMTQTPASVSEPVGGTVTIKCQASENIGNGLAWYQQKPGQPPNLLIYGASTLASGVPSRFSGSGYGTEFTLTVSDLESGDAATYYCQCTYWNPDYIGGAFGGGTEVVVT
# notes: rabbit monoclonal antibody; also called P013.A.00086.E02
# B9: P013.S.01.B.D04 (antibody, V domains shown)
# VH: QEQLKESGGRLVTPGGSLTLTCTVSGFSLSIYAMGWFRQAPGKGLEWIGDIYPGSDSTWYASWAKGRFTISKTSTTVDLKITSPTTEDTATYFCAREIDAGYVGYGFDLWGQGTLVTVSS
# VL: B1 VL with P44S, Q51K, T57S, Q71E, G95S, S96V, L108V
# notes: rabbit monoclonal antibody; also called P013.A.00088.B09
# B10: P013.S.01.B.E03 (antibody, V domains shown)
# VH: QSLEESGGRLVTPGTPLTLTCTASGFSITNYHISWVRQAPGKGLEWIGYIYAGRDFTYYANWAEGRFTISKTSTTVDLQVTVPTTEDTATYFCARDGGSPNWTLDLWGQGTLVTVSS
# VL: DVVMTQTPASVSEPVGGTVTINCQASESISDYLSWYQQKPGQPPKLLIYRASTLESGVSSRFKGSGSGTQFTLTISDLESADAATYYCQSNYYDSRGNAFGGGTEVVVK
# notes: rabbit monoclonal antibody; also called P013.A.00015.E03
# Target: T1, rhIL-1RAcP/Fc Chimera
# Assay: ELISA, primary supernatant, coated hu-IL-1RAcP-Fc
# In short: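 Plates coated with 0.5 μg/mL Fc-tagged human IL-1RAcP; rabbit B-cell supernatant antibodies detected by peroxidase anti-rabbit IgG Fab2 and TMB, absorbance 450/620 nm. Parallel IL12Rβ1-Fc coating served as counterscreen to exclude tag binders.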
row,Binder,hu-IL1RaP ELISA (OD)
1,B1,3.4
2,B2,3.5
3,B3,3.6
4,B4,3.4
5,B5,3.3
6,B6,3.7
7,B7,3.3
8,B8,3.5
9,B9,3.9
10,B10,3.4

# Target: T1, rhIL-1RAcP/Fc Chimera
# Assay: ELISA, recombinant purified mAb
row,Binder,EC50 [µg/mL]
1,B1,0.07
2,B2,0.256
3,B3,0.847
4,B4,0.555
5,B5,0.541
6,B6,0.137
7,B7,0.59
8,B8,0.042
9,B9,0.247
10,B10,0.05

# Target: T2, mIL1RAcP-Fc
# Assay: ELISA, primary supernatant, coated mu-IL-1RAcP-Fc
row,Binder,mu-IL1RaP ELISA (OD)
1,B1,-0.1
2,B2,-0.1
3,B3,0.7
4,B4,-0.1
5,B5,0
6,B6,-0.1
7,B7,0
8,B8,0.5
9,B9,0
10,B10,0.1

# Target: T3, human IL-1RAcP on 293T/17-FR cells
# Assay: cell-based or functional assay
Binder,"functional reporter gene assay (% inhibition), 0.04 µg/mL mAb [%]","functional reporter gene assay (% inhibition), 0.2 µg/mL mAb [%]","functional reporter gene assay (% inhibition), 1 µg/mL mAb [%]","functional reporter gene assay (% inhibition), 5 µg/mL mAb [%]","primary supernatant functional assay (% inh.), NF-kB luciferase reporter [%]"
B1,15,70,92,93,72
B2,19,28,73,96,88
B3,21,27,31,30,29
B4,9,22,54,79,85
B5,1,22,58,79,85
B6,-6,14,56,86,79
B7,0,14,21,68,85
B8,42,83,93,99,97
B9,27,67,87,89,95
B10,54,63,60,68,73
